Measurements as given in patent publication US20090203706A1, “LYSINE-BASED POLYMERIC LINKERS” (priority 2006, published 2009).

Assay: Rate of hydrolysis of PEG prodrugs in rat plasma (HPLC)
Type: in vitro ADME
Settings: 37° C., disappearance of PEG derivative
Protocol: The rates of hydrolysis were obtained by employing a C8 reversed phase column (Zorbax® SB-C8) using a gradient mobile phase made of (a) 0.1 M triethylammonium acetate buffer and (b) acetonitrile. A flow rate of 1 mL/min was used, and chromatograms were monitored using a UV detector. For hydrolysis in buffer, PEG derivatives were dissolved in 0.1 M pH 7.4 PBS at a concentration of 5 mg/mL, while for hydrolysis in plasma, the derivatives were dissolved in distilled water at a concentration of 20 mg/100 μL and 900 μL of rat plasma was added to this solution. The mixture was vortexed for 2 min and divided into 2 mL glass vials with 100 μL of the aliquot per each vial. The solutions were incubated at 37° C. for various periods of time. A mixture of methanol-acetonitrile (1:1, v/v, 400 μL) was added to a vial at the proper interval and the mixture was vortexed for 1 min, followed by filtration through […] filter membrane (optionally followed by a second filtration through […] filter membrane). An aliquot of 20 μL of the filtrate was injected into the HPLC. On the basis of the peak area, the amounts of native compound and PEG derivative were estimated, and the half-life of each compound in different media was calculated using linear regression analysis from the disappearance of PEG derivative.

PEG-[Lys (DGA-SCH AF)2]2 [Compound 12a]
t1/2α of hydrolysis: 5 h
t1/2β of hydrolysis: 15 h
